Measured values as given in publication PMC9945442.

Molecular target: Argonaute 2 (AGO2) (human (Homo sapiens), UniProt Q9UKV8 1-859)
Experiment: northern blot of purified loaded AGO2

Sequence of Argonaute 2 (AGO2) (Q9UKV8 whole entry): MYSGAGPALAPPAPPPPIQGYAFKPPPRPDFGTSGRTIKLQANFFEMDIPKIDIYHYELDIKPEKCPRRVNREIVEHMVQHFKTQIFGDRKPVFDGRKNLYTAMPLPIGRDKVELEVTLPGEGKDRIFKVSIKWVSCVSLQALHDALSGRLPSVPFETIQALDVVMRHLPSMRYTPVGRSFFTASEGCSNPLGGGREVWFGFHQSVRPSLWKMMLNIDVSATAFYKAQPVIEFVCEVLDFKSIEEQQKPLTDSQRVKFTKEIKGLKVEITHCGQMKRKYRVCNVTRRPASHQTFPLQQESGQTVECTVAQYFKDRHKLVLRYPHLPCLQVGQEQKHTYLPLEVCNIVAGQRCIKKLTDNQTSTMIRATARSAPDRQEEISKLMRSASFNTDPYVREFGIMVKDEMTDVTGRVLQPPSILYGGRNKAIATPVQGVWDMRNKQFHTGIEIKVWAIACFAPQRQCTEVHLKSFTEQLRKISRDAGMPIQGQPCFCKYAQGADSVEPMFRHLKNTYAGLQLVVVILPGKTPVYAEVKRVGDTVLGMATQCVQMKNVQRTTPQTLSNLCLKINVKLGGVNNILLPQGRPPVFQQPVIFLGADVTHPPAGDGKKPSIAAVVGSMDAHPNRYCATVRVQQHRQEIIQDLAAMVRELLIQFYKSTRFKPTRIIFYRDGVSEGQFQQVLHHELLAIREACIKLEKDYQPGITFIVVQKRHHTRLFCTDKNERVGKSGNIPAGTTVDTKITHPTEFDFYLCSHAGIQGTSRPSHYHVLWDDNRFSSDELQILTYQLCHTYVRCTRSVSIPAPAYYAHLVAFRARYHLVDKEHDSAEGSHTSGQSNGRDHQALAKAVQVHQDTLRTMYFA

UGGCAGUGUCUUAGCUGGUUGU (ssRNA) [miR-34a]: binds.
